Data on six molecules can be found in PMC7154664 (Angewandte Chemie (International Ed. in English), 2020).

One data set has as its target T1, YciA (Escherichia coli, UniProt P0A8Z0).
T1 sequence (P0A8Z0 1-132): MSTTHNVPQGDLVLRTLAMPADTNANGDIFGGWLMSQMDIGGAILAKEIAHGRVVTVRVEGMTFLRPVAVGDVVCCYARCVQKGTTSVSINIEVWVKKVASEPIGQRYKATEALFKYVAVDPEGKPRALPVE
The experiment in a line: thioesterase activity assay. Type of data set: biochemical. To be noted: racemic mandelyl-CoA 0.5 mM, YciA 2 μM.

For another data set, the target named is HACLHs (Homo sapiens, UniProt Q9UJ83). The experiment in a line: carboligation, LC-MS product analysis after […] h. Type of data set: biochemical. To be noted: formyl-CoA 1 mM as C1 donor, aldehyde 10 mM, enzyme 5 μM.
Sequence of HACLHs (Q9UJ83 whole entry): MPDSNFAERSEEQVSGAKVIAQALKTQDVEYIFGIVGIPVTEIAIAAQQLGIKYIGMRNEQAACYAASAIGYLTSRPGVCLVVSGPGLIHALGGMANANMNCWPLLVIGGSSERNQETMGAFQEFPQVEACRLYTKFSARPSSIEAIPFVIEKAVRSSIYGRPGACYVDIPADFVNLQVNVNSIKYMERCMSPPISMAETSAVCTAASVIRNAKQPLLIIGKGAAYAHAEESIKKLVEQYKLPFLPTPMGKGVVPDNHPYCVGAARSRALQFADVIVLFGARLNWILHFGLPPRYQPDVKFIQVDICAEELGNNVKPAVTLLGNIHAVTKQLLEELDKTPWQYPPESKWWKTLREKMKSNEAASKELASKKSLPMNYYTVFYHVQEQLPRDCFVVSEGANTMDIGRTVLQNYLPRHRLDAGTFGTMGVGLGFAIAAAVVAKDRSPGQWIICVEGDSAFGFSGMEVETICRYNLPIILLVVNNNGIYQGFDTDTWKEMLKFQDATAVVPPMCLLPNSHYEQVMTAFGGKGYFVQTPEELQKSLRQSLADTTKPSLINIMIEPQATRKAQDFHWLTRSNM
Substrate in the data set “purified protein”: CC(C)(COP(=O)(O)OP(=O)(O)OC[C@H]1O[C@@H](n2cnc3c(N)ncnc32)[C@H](O)[C@@H]1OP(=O)(O)O)[C@@H](O)C(=O)NCCC(=O)NCCSC(=O)C(=O)O
As to the kind of experiment: purified protein. To be noted: decarboxylation to formyl-CoA; ThDP-dependent.

As for `CC(C)(COP(=O)(O)OP(=O)(O)OC[C@H]1O[C@@H](n2cnc3c(N)ncnc32)[C@H](O)[C@@H]1OP(=O)(O)O)[C@@H](O)C(=O)NCCC(=O)NCCSC(=O)C(O)c1ccccc1` (stereo partly drawn) [mandelyl‐CoA], on YciA, the thioesterase activity assay result is reported as “YciA showed relatively high mandelyl‐CoA thioesterase activity”.
In the case of `CC(C)(COP(=O)(O)OP(=O)(O)OC[C@H]1O[C@@H](n2cnc3c(N)ncnc32)[C@H](O)[C@@H]1OP(=O)(O)O)[C@@H](O)C(=O)NCCC(=O)NCCSC=O` [formyl‐CoA], the “carboligation, LC-MS product analysis after 1 h” value on HACLHs is “HACLHs and OXCMe are able to perform nucleophilic C1‐extension reactions of different aldehydes with formyl‐CoA”.

B1: OXCMe (Methylorubrum extorquens AM1) (protein)
chain: MTVQAQNIDAITAGAMPHEEPELTDGFHLVIDALKLNGIETIYNVPGIPITDLGRLAQAEGLRVISFRHEQNAGNAAAIAGFLTKKPGICLTVSAPGFLNGLTALANATTNCFPMILISGSSEREIVDLQQGDYEEMDQLAIAKPLCKAAFRVLHAADIGIGVARAIRAAVSGRPGGVYLDLPAKLFSQVIDADLGARSLVKVIDAAPAQLPAPAAIARALDVLKSAERPLIILGKGAAYAQADEAVRALVEESGIPYVPMSMAKGLLPDTHPLSAGAARSTALKDSDVVLLVGARLNWLLSHGKGKTWGEPGSKRFIQIDIEPREMDSNVEIVAPVVGDIGSCVEALLDGIRKDWKGAPSNWLETLRGKREANIAKMAPKLMKNSSPMCFHSALGALRTVIKERPDAILVNEGANTLDLARGIIDMYQPRKRLDVGTWGVMGIGMGFAVAAAVETGKPVLAVEGDSAFGFSGMEVETICRYELPVCIVIFNNNGIYRGTDTDPTGRDPGTTVFVKNSRYDKMMEAFGGVGVNVTTPDELKRAVDEAMNSGKPTLINAEIDPAAGSESGNIGSLNPQSTLKKK
With B1, in the data set “purified protein”, the Km was determined as 105 ± 11 µM, the kcat is 98 ± 3 s⁻¹ and the kcat/Km was 930000 M⁻¹ s⁻¹.

B2: OXCMe (Methylorubrum extorquens AM1; Y497A) (protein)
chain: MTVQAQNIDAITAGAMPHEEPELTDGFHLVIDALKLNGIETIYNVPGIPITDLGRLAQAEGLRVISFRHEQNAGNAAAIAGFLTKKPGICLTVSAPGFLNGLTALANATTNCFPMILISGSSEREIVDLQQGDYEEMDQLAIAKPLCKAAFRVLHAADIGIGVARAIRAAVSGRPGGVYLDLPAKLFSQVIDADLGARSLVKVIDAAPAQLPAPAAIARALDVLKSAERPLIILGKGAAYAQADEAVRALVEESGIPYVPMSMAKGLLPDTHPLSAGAARSTALKDSDVVLLVGARLNWLLSHGKGKTWGEPGSKRFIQIDIEPREMDSNVEIVAPVVGDIGSCVEALLDGIRKDWKGAPSNWLETLRGKREANIAKMAPKLMKNSSPMCFHSALGALRTVIKERPDAILVNEGANTLDLARGIIDMYQPRKRLDVGTWGVMGIGMGFAVAAAVETGKPVLAVEGDSAFGFSGMEVETICRYELPVCIVIFNNNGIARGTDTDPTGRDPGTTVFVKNSRYDKMMEAFGGVGVNVTTPDELKRAVDEAMNSGKPTLINAEIDPAAGSESGNIGSLNPQSTLKKK
As for B2, in the data set “purified protein”, the Km amounted to 180 ± 17 µM, the kcat stood at 1.32 ± 0.04 s⁻¹ and the specificity constant (kcat/Km) was determined as 7300 M⁻¹ s⁻¹.

B3: OXCMe (Methylorubrum extorquens AM1; S568A) (protein)
chain: MTVQAQNIDAITAGAMPHEEPELTDGFHLVIDALKLNGIETIYNVPGIPITDLGRLAQAEGLRVISFRHEQNAGNAAAIAGFLTKKPGICLTVSAPGFLNGLTALANATTNCFPMILISGSSEREIVDLQQGDYEEMDQLAIAKPLCKAAFRVLHAADIGIGVARAIRAAVSGRPGGVYLDLPAKLFSQVIDADLGARSLVKVIDAAPAQLPAPAAIARALDVLKSAERPLIILGKGAAYAQADEAVRALVEESGIPYVPMSMAKGLLPDTHPLSAGAARSTALKDSDVVLLVGARLNWLLSHGKGKTWGEPGSKRFIQIDIEPREMDSNVEIVAPVVGDIGSCVEALLDGIRKDWKGAPSNWLETLRGKREANIAKMAPKLMKNSSPMCFHSALGALRTVIKERPDAILVNEGANTLDLARGIIDMYQPRKRLDVGTWGVMGIGMGFAVAAAVETGKPVLAVEGDSAFGFSGMEVETICRYELPVCIVIFNNNGIYRGTDTDPTGRDPGTTVFVKNSRYDKMMEAFGGVGVNVTTPDELKRAVDEAMNSGKPTLINAEIDPAAGSEAGNIGSLNPQSTLKKK
As to B3, the Km in “purified protein” came out at 23 ± 2 µM.

B4: OXCMe (Methylorubrum extorquens AM1; S568A/Y497A) (protein)
chain: MTVQAQNIDAITAGAMPHEEPELTDGFHLVIDALKLNGIETIYNVPGIPITDLGRLAQAEGLRVISFRHEQNAGNAAAIAGFLTKKPGICLTVSAPGFLNGLTALANATTNCFPMILISGSSEREIVDLQQGDYEEMDQLAIAKPLCKAAFRVLHAADIGIGVARAIRAAVSGRPGGVYLDLPAKLFSQVIDADLGARSLVKVIDAAPAQLPAPAAIARALDVLKSAERPLIILGKGAAYAQADEAVRALVEESGIPYVPMSMAKGLLPDTHPLSAGAARSTALKDSDVVLLVGARLNWLLSHGKGKTWGEPGSKRFIQIDIEPREMDSNVEIVAPVVGDIGSCVEALLDGIRKDWKGAPSNWLETLRGKREANIAKMAPKLMKNSSPMCFHSALGALRTVIKERPDAILVNEGANTLDLARGIIDMYQPRKRLDVGTWGVMGIGMGFAVAAAVETGKPVLAVEGDSAFGFSGMEVETICRYELPVCIVIFNNNGIARGTDTDPTGRDPGTTVFVKNSRYDKMMEAFGGVGVNVTTPDELKRAVDEAMNSGKPTLINAEIDPAAGSEAGNIGSLNPQSTLKKK
B4: in “purified protein”, the Km was 103 ± 15 µM, the kcat was 0.32 ± 0.01 s⁻¹ and the specificity constant (kcat/Km) was 3100 M⁻¹ s⁻¹.
